# Assay results from PMC4310248.
# Target: Exo10Rrp6 (crystal; Exo9 core + Rrp6 128-685 D238N) (Saccharomyces cerevisiae, UniProt Q12149;P38792;Q08285;P53859;P46948;Q05636;Q12277;P48240;P53256;P25359 …, D238N;Rrp6:)
# Assay: X-ray crystallography
binder,measurement,value
AAAAAAAAAAAAAAAAAAAAAAAA (ssRNA) [polyA24],binding result,binds
